Bounds are passed on as bounds.

Results on five molecules are retold here after article PMC5961129.

One series has as its target PUF-10R (human, engineered, UniProt Q14671 828-955+992-1142+1028-1176, internal_change). As to the kind of experiment: FP.
For the next series, the target named is PUF-8R N1080Y (human, UniProt Q14671 828-1176, N1080Y). As to the kind of experiment: FP.
In another series the target is PUF-8R H972Y (human, UniProt Q14671 828-1176, H972Y). As to the kind of experiment: FP.
In series [1] the target is PUF-8R (Pumilio1 PUF domain, wild type) (human, UniProt Q14671 828-1176). Put plainly: FP.
For another series, the target named is PUF-8R R1008Y (human, UniProt Q14671 828-1176, R1008Y). Put plainly: FP.
Series [2] deals with T1, PUF-9R (human, engineered, UniProt Q14671 828-955+1028-1142+1028-1176, internal_change). As to the kind of experiment: FP.
For another series, the target named is PUF-12R (human, engineered, UniProt Q14671 828-1027+992-1142+1028-1176, internal_change). Put plainly: FP.
Series [3] has as its target T1, PUF-9R. As to the kind of experiment: crystal structure.

AAUUGUUGUAAUAUUC (ssRNA) [10nt-RNA]: in the series with PUF-10R, the binding signal was ~7 fold Ka vs PUF-8R:RNA-8nt.

AAUUGUAUAUAUUC (ssRNA) [8nt-RNA] returned a binding signal in the series with PUF-8R N1080Y greater than 8 fold Ka vs PUF-8R R1008N. Also, the binding result (with PUF-8R H972Y; in series [1]; in the series with PUF-8R R1008Y) was “binds” each time. AAUUGUUGUAUAUUC (ssRNA) [9nt-RNA]: the binding signal with PUF-9R [2] is ~12 fold Ka vs PUF-8R:RNA-8nt. In the case of AAUUGUUGUAAUAUAUUC (ssRNA) [12nt-RNA], in the series with PUF-12R, the binding result is recorded as “binds”.

Turning to UGUUGUAUA (ssRNA) [RNA-9nt (crystal)], the binding result in the series with PUF-9R [3] is listed as “binds”.
